Here are results for 7 molecules from paper PMC6695453, “Peptide translocation by the lysosomal ABC transporter TAPL is regulated by coupling efficiency and activation energy” (Scientific Reports, 2019).

Side chains are listed from the residue outwards. Ends that are not written are not given here.

The Km is the concentration of substrate that gives half-maximal velocity. The term kcat denotes the maximal rate divided by the concentration of active sites. The Kd is the constant that tells how readily two partners part at equilibrium. In general, Ki refers to the dissociation constant of the complex between target and ligand, obtained from inhibition or displacement. A low value points to tighter binding.

The subject of data set [1] is Nc1ncnc2c1ncn2[C@@H]1O[C@H](COP(=O)(O)OP(=O)(O)OP(=O)(O)O)[C@@H](O)[C@H]1O. Description: purified protein, by the assay type. The note with it: other: 68 °C, 10 min, 9-mer^FL peptide (30 µM), triplicates, SD.
Data set [2] relates to Nc1nc2c(ncn2[C@@H]2O[C@H](COP(=O)(O)OP(=O)(O)OP(=O)(O)O)[C@@H](O)[C@H]2O)c(=O)[nH]1. Description: purified protein, by the assay type. Particulars: other: 68 °C, 10 min, 9-mer^FL peptide (30 µM), triplicates, SD.
Data set [3] addresses T1, coreTAPL (core complex of the transporter associated with antigen processing-like, ABCB9) fused C-terminally … (human, UniProt Q9NP78 143-766).
T1 construct: TAPL (ABCB9), human, core complex without TMD0, amino acids 143-766 of UniProt Q9NP78; source: reconstituted into proteoliposomes for transport and ATPase assays; not shown: mVenus, C-terminal, kept
T1 sequence (looked up): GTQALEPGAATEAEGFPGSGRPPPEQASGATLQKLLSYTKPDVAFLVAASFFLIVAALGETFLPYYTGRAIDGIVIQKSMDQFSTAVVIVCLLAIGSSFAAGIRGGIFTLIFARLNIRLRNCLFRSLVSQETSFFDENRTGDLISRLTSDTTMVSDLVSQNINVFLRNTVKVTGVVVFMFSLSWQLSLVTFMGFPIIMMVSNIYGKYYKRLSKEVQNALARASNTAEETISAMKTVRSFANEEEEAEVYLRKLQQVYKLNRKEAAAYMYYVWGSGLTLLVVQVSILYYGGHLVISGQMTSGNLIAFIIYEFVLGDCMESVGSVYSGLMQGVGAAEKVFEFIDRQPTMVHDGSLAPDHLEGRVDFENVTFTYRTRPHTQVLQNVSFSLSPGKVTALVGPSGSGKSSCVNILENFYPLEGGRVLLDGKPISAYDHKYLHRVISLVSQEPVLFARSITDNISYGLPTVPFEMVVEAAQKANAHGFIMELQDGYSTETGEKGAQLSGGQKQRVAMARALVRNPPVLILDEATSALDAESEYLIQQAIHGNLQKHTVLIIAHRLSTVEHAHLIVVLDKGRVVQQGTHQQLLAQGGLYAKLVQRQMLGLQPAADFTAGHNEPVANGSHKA
Nature of the data set: MST; 100 nM 9-mer^Atto-655 peptide with increasing TAPL concentrations; 20 mM HEPES, 140 mM NaCl, 0.05% DDM, 15% glycerol, pH 7.5; 22 °C; one-site binding model. The note with it: both partners purified.

The target in data set [4] is T2, coreTAPL (core complex of the transporter associated with antigen processing-like, ABCB9) fused C-terminally to mVenus (human) (UniProt Q9NP78).
T2 sequence: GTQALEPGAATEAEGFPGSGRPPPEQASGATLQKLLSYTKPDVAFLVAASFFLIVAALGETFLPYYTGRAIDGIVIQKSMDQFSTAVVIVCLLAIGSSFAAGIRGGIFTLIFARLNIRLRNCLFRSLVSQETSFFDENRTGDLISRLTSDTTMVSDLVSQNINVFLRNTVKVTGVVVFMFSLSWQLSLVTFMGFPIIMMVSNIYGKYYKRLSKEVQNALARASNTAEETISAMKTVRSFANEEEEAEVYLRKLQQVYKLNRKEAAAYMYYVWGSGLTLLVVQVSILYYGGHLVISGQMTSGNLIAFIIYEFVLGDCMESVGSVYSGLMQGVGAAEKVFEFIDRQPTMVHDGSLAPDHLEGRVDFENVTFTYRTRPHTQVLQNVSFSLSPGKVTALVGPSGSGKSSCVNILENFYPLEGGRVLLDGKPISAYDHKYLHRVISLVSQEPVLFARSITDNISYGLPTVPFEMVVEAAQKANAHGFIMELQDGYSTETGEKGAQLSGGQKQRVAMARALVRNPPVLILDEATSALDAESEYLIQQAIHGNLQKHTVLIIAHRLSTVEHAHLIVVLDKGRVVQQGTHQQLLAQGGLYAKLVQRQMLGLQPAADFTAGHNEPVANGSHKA

Data set [5] has as its target T1, coreTAPL (core complex of the …). Nature of the data set: cell-based or functional assay.
For data set [6] the target is unchanged. Nature of the data set: MST; competition: 100 nM 9-mer^Atto-655 peptide and 10 µM TAPL with unlabeled competitor peptide (18-mer titrated; 9-mer at 4 mM); 22 °C; Ki fitted considering competitor depletion. Particulars: both partners purified.
Data set [7] deals with T2, coreTAPL (core complex of the transporter associated with antigen processing-like, ABCB9) fused C-terminally to mVenus (human). The source holds these as a separate data set.
Data set [8] has the same target. This is another data set of the same source.

Take TmrAB (Thermus thermophilus HB27): the Km in data set [1] (radioactive assay) was 661 ± 176 µM; in data set [1] (pH 7.5) it was 782 ± 213 µM; in data set [2] (radioactive assay) it was 617 ± 144 µM; in data set [2] (pH 7.5), 391 ± 136 µM. Also, the kcat in data set [1] (radioactive assay) is 2.25 ± 0.217 s⁻¹; in data set [1] (pH 7.5), 0.105 ± 0.01 s⁻¹; in data set [2] (radioactive assay) it was 2.47 ± 0.2 s⁻¹; in data set [2] (pH 7.5), 0.0167 ± 0.00167 s⁻¹.

B1: Atto-655 labeled 9-mer peptide RRYC^Atto-655KSTEL (peptide)
peptide: RRYC(Atto‑655 maleimide)KSTEL
notes: source: synthetic peptide (solid phase synthesis)
In data set [3], B1 came in with a Kd of 5.4 ± 0.8 µM.
For the molecule RRYQKSTELRRYC(5‑iodoacetamidofluorescein)KSTEL [fluorescein labeled 18-mer peptide …], the K (m(Pep)) of peptide transport into TAPL proteoliposomes, 3 mM ATP, 15 min, 37 °C in data set [4] stood at 7 µM.
Still for that read-out and setting: then RYC(5‑iodoacetamidofluorescein)K([Lys-Lys-Lys-Lys-Lys-Lys-Lys-Lys])STEL (also: octa-lysine attached by isopeptide bonds) [fluorescein labeled branched 16-mer peptide RYCK(K)8STEL], with 8 µM.

B2: 18-mer peptide RRYQKSTELRRYQKSTEL (peptide)
peptide: RRYQKSTELRRYQKSTEL
notes: also called unlabeled 18-mer peptide; source: synthetic peptide (solid phase synthesis; Charité, Berlin)
B2: in data set [5], the “IC50 of inhibition of ATP hydrolysis of reconstituted TAPL by peptide (malachite green assay, 3 mM ATP, 37 °C)” value was found to be 15 µM. The molecule further had a Ki in data set [6] of 11.8 ± 3.6 µM.
Molecule RYCK([Lys-Lys-Lys-Lys-Lys-Lys-Lys-Lys])STEL (also: octa-lysine attached by isopeptide bonds) [branched 16-mer peptide RYCK(K8)STEL] displayed an IC50 of inhibition of ATP hydrolysis of reconstituted TAPL by peptide (malachite green assay, 3 mM ATP, 37 °C) in data set [4] of 22 µM.
For RRYC(5‑iodoacetamidofluorescein)KSTEL [fluorescein labeled 9-mer peptide RRYC^FluoresceinKSTEL], the K (m(pep)) of 9-mer transport into TAPL proteoliposomes in the presence of 3 mM GTP in data set [7] is 4.4 µM. The molecule further had a K (m(Pep)) of peptide transport into TAPL proteoliposomes, 3 mM ATP, 15 min, 37 °C in data set [4] of 15 µM. In data set [8], this molecule gave a K (m(Pep)) of 9-mer^FL peptide transport into TAPL proteoliposomes at 24 °C, 3 mM ATP of 10.8 µM; a K (m(Pep)) of 9-mer^FL peptide transport into TAPL proteoliposomes at 33 °C, 3 mM ATP of 15.3 µM; a K (m(Pep)) of 9-mer^FL peptide transport into TAPL proteoliposomes at 42 °C, 3 mM ATP of 17.3 µM.
